Target: UNC5H4 receptor of the pericytes and smooth muscle cells
Assay: cell-based or functional assay

B1: mutated netrin 4 (SEQ ID NO: 522), recombinant protein (ligand)
chain: LSGVAGVSSRCEKACNPRMGNLALGRKLWADTTCGQNATELYCFYSENTDLTCRQPKCDKCNAAYPHLAHLPSAMADSSFRFPRTWWQSAEDVHREKIQLDLEAEFYFTHLIVMFKSPRPAAMVLDRSQDFGKTWKPYKYFATNCSATFGLEDDVVKKGAICTPKYSSPFPCTGGEVIFKALSPPYDTENPYSAKVQEQLKITNLRVQLLKRQSYPCQRNDLNEEPQHFTHYAIYDFIVKGSCFCNGHADQCIPVHGFRPVKAPGTFHMVHGKCMCKHNTAGSHCQHCAPLYNDRPWEAADGKTGAPNECRTRKCNGHADTCHFDVNVWEASGSRSGGVCDDCQHNTEGQYCQRCKPGFYRDLRRPFSAPDACKPCSCHPVGSAVLPANSVTFCDPSNGDCPCKPGVAGRRCDRCMVGYWGFGDYGCRPCDCAGSCDPITGDCISSHTDIDWCHEVPDFRPVHNKSEPAWEWEDAQGFSALLHSGKCECKEQTLGKAKAFCGMKYSYVLKIKILSAHDKGTHVEVNVKIKKVLKSTKLKIFRGKRTLYPESWTDRGCTCPILNPGLEYLVAGHEDIRTGKLIVNMKSFVQHWKPSLGRKVMDILKRECK
VSM migration: chemotactic activity relative to non-mutated netrin 4: 3000 fold over non-mutated netrin 4
VSM proliferation: mitogenic activity relative to non-mutated netrin 4: 1000 fold over non-mutated netrin 4
